From paper PMC10261013, “Characterization of p38α autophosphorylation inhibitors that target the non-canonical activation pathway” (Nature Communications, 2023)
Ends that are not written are not given here. * marks the point of attachment. FITC = O=C1OC2(c3ccc(O)cc3Oc3cc(O)ccc32)c2ccc(NC(=S)*)cc21

How the values were obtained:
[1] = molecular target: T1, GST-p38α (human p38α with an N-terminal GST-tag, non-phosphorylated) (human, UniProt Q16539 1-360); assay: thermal shift assay; GST-p38α 1.5 μM with TAB1(386-414) peptide 15 μM, alone or with NC-37 / NC-38; 20 mM TRIS pH 7.5, 100 mM NaCl, 2 mM MgCl2, 2 mM DTT; SYPRO Orange, 25 to 95 °C; conditions: both partners purified
T1 construct: p38α (MAPK14), human; non-phosphorylated; The results text says 'p38α'; the methods and the legend say GST-p38α; also called MAPK14; non-phosphorylated p38α; source: E. coli BL21 DE3 or BL21-DE3-pLysS, purified (Glutathione-Sepharose, dialysis); not shown: GST, N-terminal, kept
T1 sequence (Q16539 whole entry): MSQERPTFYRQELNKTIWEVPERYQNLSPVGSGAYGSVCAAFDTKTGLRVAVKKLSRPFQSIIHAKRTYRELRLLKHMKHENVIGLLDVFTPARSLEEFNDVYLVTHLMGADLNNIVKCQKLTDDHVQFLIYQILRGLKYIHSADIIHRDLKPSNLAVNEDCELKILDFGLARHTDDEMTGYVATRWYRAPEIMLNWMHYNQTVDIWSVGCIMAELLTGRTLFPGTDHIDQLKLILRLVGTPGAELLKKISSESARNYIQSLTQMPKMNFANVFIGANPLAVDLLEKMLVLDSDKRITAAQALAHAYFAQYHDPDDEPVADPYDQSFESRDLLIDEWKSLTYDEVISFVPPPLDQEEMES

[2] = molecular target: T1, GST-p38α (human p38α with an N-terminal …); assay: fluorescence polarisation; direct binding: FITC-TAB1(386-414) 10 nM with non-phosphorylated GST-p38α 0.17–22 μM, 1 h at RT; 20 mM Tris pH 7.5, 100 mM NaCl, 1 mM DTT, 10 mM MgCl2; conditions: both partners purified

binding result [1]	Kd [2] [µM]	Binder
binds		RVYPVSVPYSSAQSTSKTSVTLSLVMPSQ (also called TAB1 peptide; source: synthetic peptide, bought: GenScript) [TAB1(386-414) peptide]
	0.989 ± 0.16	{FITC}-RVYPVSVPYSSAQSTSKTSVTLSLVMPSQ (source: synthetic peptide, bought: ChinaPeptides) [FITC-TAB1(386-414) peptide]
